In data set [1] the test system is control peptide, an HES-bearing peptide of the same length, with the same labeling, that does not contain the conformation-dependent cleavage site.
Data set [2] concerns eighteen amino acid peptide containing the amino acid sequence PLGIA, covalently labeled with the same fluorophore near each end (HES structure).

As for matrix metalloprotease-9 (MMP-9), the “fluorescence intensity on addition of the MMP” value in data set [1] is “The fluorescence of the latter does not increase upon addition of the MMP”. In data set [2], the “fluorescence intensity on cleavage of the HES peptide (peptide at 2 uM, pH 7.5 buffer)” value is “Cleavage of the peptide gives rise to an increase in fluorescence intensity”; the “reverse-phase HPLC retention time of the peptide before and after exposure to the protease” value is “After exposure to MMP-9, the major peaks were at ca. 30 and 31 minutes with the almost complete disappearance of the 38 minute peak”.
